Legend:
[1] = Two-substrate kinetic constants, Gal-T reaction; type: biochemical
Description: (§1) Studies for Determining the Kinetic Constants: The true Km of the donor (KA) and of the acceptor (KB), the dissociation constant of the donor, Ki(a), and kcat were obtained using two-substrate analyses and the primary plots of five concentrations of donor (UDP-Gal or UDP-GalNAc) and five concentrations of acceptor, and the corresponding secondary plots of the intercepts and slopes. Initial rate conditions were linear with respect to time. A suitable range of donor and acceptor concentrations were chosen, which allowed an accurate Michaelis-Menten plot to be derived. The data were also analyzed for a general two-substrate system using the following equations (Zhang et al., Glycobiology, 9:815-822 (1999)) with the software EnzFitter, a Biosoft nonlinear curve-fitting program for Windows.
(§2) [formula] Here v is the initial velocity and the rate equation for sequential symmetrical initial velocity pattern associated with Equation 1, an ordered or random equilibrium mechanism in which substrate A dissociates well from the E-S complex with a dissociation constant of Ki(a). Equation 2 is for asymmetric initial velocity pattern for a double displacement or “ping-pong” mechanism. The kinetic parameters KA, KB, Ki(a), and Vmax, were obtained from the fitted curves using the above rate equations. The graphical method and EnzFitter program gave very similar kinetic parameters. In the N-acetylgalactosamine transferase (GalNAc-T) assay, the maximum substrate concentrations used for UDP-GalNAc and GlcNAc were 1 and 200 mM, respectively. However, in the galactose transferase (Gal-T) assay, because of the limited solubility of GlcNAc in water, the concentration of GlcNAc was limited to no more than […] (which is 2-fold higher than its Km value), whereas up to 300 μM UDP-Gal were used.

[2] = GalNAc-T activity in absence and presence of LA, acceptor Glucosamine; type: biochemical; details: acceptor Glucosamine 100 mM, 500 μM UDP-GalNAc, 37° C., 10 minutes
Method: (§3) Gal-T and GalNAc-T Enzyme Assays: The protein concentrations were measured using the Bio-Rad protein assay kit, based on the method of Bradford and further verified on SDS gel. […] The activities were measured using UDP-Gal or UDP-GalNAc as sugar nucleotide donors, and GlcNAc and Glc as the acceptor sugars. For the specific activity measurements, a 100-μl incubation mixture containing 50 mM β-benzyl-GlcNAc, 10 mM MnCl2, 10 mM Tris-HCl, pH 8.0, 500 μM UDP-Gal or UDP-GalNAc, 20 ng of Gal-T1, and 0.5 μCl of [^3H]UDP-Gal or [^3H]UDP-GalNAc was used for each Gal-T or GalNAc-T reaction. The incubation was carried out at 37° C. for 10 min. […] The column was washed successfully with 300, 400, and 500 μl of water, and the column flow-through was diluted with Biosafe scintillation fluid; radioactivity was measured with a Beckman counter. A reaction without the acceptor sugar was used as a control. […]

[3] = GalNAc-T activity in absence and presence of LA, acceptor Glc; type: biochemical; details: for GalNAc-T activity: acceptor Glc 100 mM, 500 μM UDP-GalNAc, 37° C., 10 minutes
Method: as §3

[4] = Two-substrate kinetic constants, GalNAc-T reaction; type: biochemical
Description: as §1, §2

[5] = Gal-T specific activity assay; type: biochemical; details: donor 500 μM; acceptor β-benzyl-GlcNAc 25 mM (10 mM for C342T); saturating conditions
Method: (§4) For example, the galactose and N-acetylgalactosyltransferase activity of β(1,4)-galactosyltransferase I can be determined using the following assay conditions. […], 10 mM MnCl2, 10 mM Tris-HCl (pH 8.0), 500 μM UDP-Gal or UDP-GalNAc, and 20 ng of β(1,4)-galactosyltransferase I can be incubated at 37° C. for 10 minutes to promote coupling of a donor sugar to an acceptor sugar. While these conditions are provided as an example, it is understood that many other conditions may be used to chemically link a donor to an acceptor using the altered catalytic domains of the invention.
(§5) Gal-T and GalNAc-T Enzyme Assays: The protein concentrations were measured using the Bio-Rad protein assay kit, based on the method of Bradford and further verified on SDS gel. […] The activities were measured using UDP-Gal or UDP-GalNAc as sugar nucleotide donors, and GlcNAc and Glc as the acceptor sugars. For the specific activity measurements, […], 10 mM MnCl2, 10 mM Tris-HCl, pH 8.0, 500 μM UDP-Gal or UDP-GalNAc, 20 ng of Gal-T1, and 0.5 μCl of [^3H]UDP-Gal or [^3H]UDP-GalNAc was used for each Gal-T or GalNAc-T reaction. The incubation was carried out at 37° C. for 10 min. […] The column was washed successfully with 300, 400, and 500 μl of water, and the column flow-through was diluted with Biosafe scintillation fluid; radioactivity was measured with a Beckman counter. A reaction without the acceptor sugar was used as a control. A similar assay was carried out to measure the GalNAc-T activity with Glc and other acceptors in the presence of 50 μM bovine LA (Sigma).

[6] = GalNAc-T activity in absence and presence of LA, acceptor GlcNAc; type: biochemical; details: acceptor GlcNAc 100 mM, 500 μM UDP-GalNAc, 37° C., 10 minutes
Method: as §3

[7] = GalNAc-T specific activity assay; type: biochemical
Method: as §4, §5

[8] = GlcNAc-T specific activity assay; type: biochemical; details: donor 500 μM; acceptor β-benzyl-GlcNAc 25 mM
[9] = Stability of the folded recombinant proteins; type: physicochemical; details: after folding and purification from inclusion bodies
Method: Mutation of the stem region of bovine β4Gal-T1 to inhibit proteolysis: The wild-type bovine SRCDβ4Gal-T1, which has Ser at position 96, was expressed in E. coli. […] The protein was electroblotted to polyvinylidene difluoride membrane, and the N-terminal sequence of the cleaved fragment was determined by Edman degradation at the Protein Chemistry Laboratory, NCI-Frederick. The N-terminal sequence of the fragment was determined as SRAPSNLD (SEQ ID NO: 21). This corresponds to the cleavage at Ser96 within the sequence region KPR^96SRAPSNLD (SEQ ID NO: 22). To prevent this proteolytic digestion within the stem region, we now constructed a mutant substituting Ala in place of Ser96. This prevented the cleavage within the stem region of bovine β4Gal-T1 keeping the recombinant protein intact for a long period of time. Even though, the experimental results described in this study are with the mutant bovine S96A-SRCDβ4Gal-T1 (FIG. 3A), for the sake of convenience in abbreviation this protein is simply referred to as bovine SRCDβ4Gal-T1.

[10] = β4Gal-T1 enzyme assay of in vitro folded CD and SRCD proteins; type: biochemical; details: folded under condition I
Method: β4Gal-T1 Enzyme Assays: The in vitro assay for β4Gal-T1 enzyme activity was performed as described (Boeggeman et al., Glycobiology, 12:395-407 (2002)). The ^3H-labeled-UDP-Gal was used as sugar donor and GlcNAc as the sugar acceptor. A reaction without GlcNAc was used as a control.
Binding of recombinant proteins to UDP-affinity column: UDP-agarose was used to bind the active proteins at 4° C. Columns containing 1 ml bed volume of UDP-agarose were pre-equilibrated with 10 ml of 25 mM cacodylic buffer, pH 7.6, containing 25 mM MnCl2. The renatured protein solutions (0.5 mg) were adjusted to the pre-equilibration buffer conditions and applied to the columns. After loading the sample, the pass-through was re-cycled. It was then analyzed for the unbound protein by SDS-PAGE. The columns were washed 3× with 1-ml portions of equilibration buffer. The bound protein was eluted with the elution buffer consisting of 25 mM cacodylic buffer, pH 7.6, 25 mM EDTA and 1 M NaCl. Fractions of 0.5 ml were collected from the columns, and aliquots were analysed by SDS-PAGE. For enzymatic analysis the appropriate fractions were pooled and dialysed against 50 mM Tris-HCl pH 8.0 at 4° C. […]

[11] = UDP-N-acetylgalactosamine → GlcNAc

B1: Y289L_C342T: bovine Gal-T1 catalytic domain (residues 130-402), Tyr-289 exchanged with Leu, with Cys-342 to Thr mutation (protein)
chain: SLTACPEESPLLVGPMLIEFNIPVDLKLIEQQNPKVKLGGRYTPMDCISPHKVAIIILFRNRQEHLKYWLYYLHPMVQRQQLDYGIYVINQAGESMFNRAKLLNVGFKEALKDYDYNCFVFSDVDLIPMNDHNTYRCFSQPRHISVAMDKFGFSLPYVQLFGGVSALSKQQFLSINGFPNNYWGWGGEDDDIYNRLAFRGMSVSRPNAVIGKTRMIRHSRDKKNEPNPQRFDRIAHTKETMLSDGLNSLTYMVLEVQRYPLYTKITVDIGTPS
catalytic constant (kcat) relative to wild type ([1]; Gal-T1 reaction): comparable with the wild type
Km for the acceptor relative to wild-type Gal-T1 ([1]; Gal-T reaction): ~20 fold
KA (true Km of the donor), Gal-T ([1]; UDP-galactose → GlcNAc): 75 (1) μM
KB (true Km of the acceptor), Gal-T ([1]; UDP-galactose → GlcNAc): 198 mM
Kcat., Gal-T ([1]; UDP-galactose → GlcNAc, unit assumed): 8.5 s⁻¹
GalNAc-T activity ([2]; +LA 55 μM): 5.0 pmol/min/ng
GalNAc-T activity ([2]; −LA): 1.8 pmol/min/ng
GalNAc-T activity ([3]; +LA 55 μM): 34.8 pmol/min/ng
GalNAc-T activity ([3]; −LA): 2.6 pmol/min/ng
acceptor preference of GalNAc transfer ([3]; in the presence of LA): transfer GalNAc preferably to Glc rather than to GlcNAc
catalytic constant (kcat), fold higher ([4]; GalNAc reaction): 3-5 fold
KA (true Km of the donor), GalNAc-T [4, 11]: 854 (8) μM
KB (true Km of the acceptor), GalNAc-T [4, 11]: 51 (1) mM
Kcat., GalNAc-T [4, 11]: 4.0
UDP-galactose → GlcNAc Gal-T activity [5]: 16.2 pmol/min/ng
GalNAc-T activity ([6]; +LA 55 μM): 3.3 pmol/min/ng
GalNAc-T activity ([6]; −LA): 31.3 pmol/min/ng
galactose transferase versus N-acetylgalactosyltransferase activity ([7]; comparison in words (Table III, FIG. 1)): equally strong galactose transferase and N-acetylgalactosyltransferase activities
UDP-GalNAc → GlcNAc GalNAc-T activity ([7]; donor 500 μM, acceptor β-benzyl-GlcNAc 25 mM): 27.3 pmol/min/ng
UDP-GlcNAc → GlcNAc GlcNAc-T activity [8]: 8.2 pmol/min/ng

B2: human SRCDβ4Gal-T1: human stem region/catalytic domain β4Gal-T1, not mutated (protein, listed as Homo sapiens)
chain: RDLSRLPQLVGVSTPLQGGSNSAAAIGQSSGDLRTGGARPPPPLGASSQPRPGGDSSPVVDSGPGPASNLTSVPVPHTTALSLPACPEESPLLVGPMLIEFNMPVDLELVAKQ
stability against cleavage within the stem region [9]: only after long periods of time
specific activity after elution from UDP-agarose versus before loading [10]: 6 fold

— patent publication US7482133B2, “Catalytic domains of β(1,4)-galactosyltransferase I having altered donor and acceptor specificities, domains that promote in vitro protein folding, and methods for their use” (The United States of America as represented by the …, priority 2003, dated 2009)
